In paper PMC5093408 one finds stoichiometry N data, which are given here for six substances.

Assay [1] addresses HUSpm Asn92Lys mutant (Spiroplasma melliferum KC3). In words: SEC; size-exclusion chromatography of the purified point mutants; conditions not given. In general terms: In gel filtration, larger molecules generally elute earlier.
Assay [2] has as its target HUSpm Lys35Thr mutant (Spiroplasma melliferum KC3). The assay is described as above.
For assay [3], the target named is HUSpm Phe14Ala mutant (Spiroplasma melliferum KC3). The assay is described as above.
Assay [4] has as its target HUSpm Phe29Ala mutant (Spiroplasma melliferum KC3). Described as above.
In assay [5] the target is HUSpm Val17Thr mutant (Spiroplasma melliferum KC3). The assay is described as above.
For assay [6], the target named is histone-like HU protein from Spiroplasma melliferum KC3 (Spiroplasma melliferum KC3). Kind of assay: crystal structure; hanging-drop vapour diffusion at 4 °C; protein 14 mg/ml in 20 mM Tris HCl pH 8.0, 200 mM NaCl, 5% glycerol; reservoir 0.1 M Tris HCl pH 8.0, 35% v/v PEG 400, 5% glycerol; one monomer per asymmetric unit, dimer by a crystallographic twofold axis; 1.4 Å.

By stoichiometry N is commonly meant a count of units in the complex or per binding partner. Turning to HUSpm Asn92Lys mutant (natural protein), the stoichiometry N in assay [1] was determined as 2.

As to HUSpm Lys35Thr mutant (natural protein), the stoichiometry N in assay [2] was 2.

In assay [3], HUSpm Phe14Ala mutant (natural protein) came in with a stoichiometry N of 2.

Take HUSpm Phe29Ala mutant (natural protein): the stoichiometry N in assay [4] was 2.

HUSpm Val17Thr mutant (natural protein) registered a stoichiometry N in assay [5] of 2.

In the case of “histone-like HU protein from Spiroplasma melliferum KC3 (natural protein)”, the stoichiometry N in assay [6] is 2.
